Results published in the DeepSol protein solubility set.

Assay: soluble on expression in E. coli; label from the status in PepcDB or PDB records

Sequence | soluble on expression in E. coli
MIACICAITVMAQVQTHDVKGVVFDRRQQPIVGALVTAKGTNISTITDVDGKFLLQEVPLSVKKVVVTSIGMETREVDLNVPVQLTGKRKKVSFVAHAGLSMSKYTIYGSDFKVGYEFGLGIEVRMSKRWAFQPTLQICNHGAEFNAERYGVKYQETWNPVSLDLPMLFILRCPIARKMNLAFSMGPVFSYGFAGKVKASETGKPDEEYDIYSSEYEYDYSGGKHSLLHPFSFGVAYGIGVEYKKWLAGISGKSMCLGQDDEGFEAKEHNLVLTLGVIYRF | not soluble
MIASKMPREVRLPSFQIEIIGAMSTYKIYCQSLLPLSHSALLIMVAPSFPLLNLPEKSLKEVFCNMSVVQQTCISMISEKTKNLVRKFHIFKQVQIWLDFSDSLRCYMSLKGISLSIWHTPMWH | not soluble
MIDENLIKINLICESQDEVFHYLATLVVDNGYANNTESVVQALKLRESEGTTGMMEGFAIPHAKDKSIVKPSIAILKLKTGVEWHSMDGQLINNVIALFIPEKEAGTTHLKVLSQIARLLVNKTFKEKIKEADTILELKELLTEKLDLTS | not soluble
MIDLENQEREIINLMFSQRISWLAAVRIRHKLSLAEVSKMLGISINSLKQIEKTERLSSNIKSKMAEIYGCPPELLICPSWMTAEHK | not soluble
MIDLSKTVFYTSIDIGSRYIKGLVLGKRDQEWEALAFSSVKSRGLDEGEIKDAIAFKESVNTLLKELEEQLQKSLRSDFVISFSSVSFEREDTVIERDFGEEKRSITLDILSEMQSEALEKLKENGKTPLHIFSKRYLLDDERIVFNPLDMKASKIAIEYTSIVVPLKVYEMFYNFLQDTVKSPFQLKSSLVSTAEGVLTTPEKDRGVVVVNLGYNFTGLIAYKNGVPIKISYVPVGMKHVIKDVSAVLDTSFEESERLIITHGNAVYNDLKEEEIQYRGLDGNTIKTTTAKKLSVIIHARLREIMSKSKKFFREVEAKIVEEGEIGIPGGVVLTGGGAKIPRINELATEVFKSPVRTGCYANSDRPSIINADEVANDPSFAAAFGNVFAVSENPYEETPVKSENPLKKIFRLFKELME | soluble
MIDTTVFQNKTAVYYTLGCKLNFSETSTIGKILREAGVRTARKGEKADICVVNTCSVTEMADKKCRQAIHRLVKQHPGAFVVVTGCYAQLKPGDVAKIKGVDVVLGAEQKGDLLQYLGDLHKHEEGEAFTTTTKDIRSFSPSCSRGDRTRFFLKVQDGCDYFCSYCTIPFARGRSRNGTVASMVEQARQAAAEGGKEIVLTGVNIGDFGKTTGETFFDLVKALDQVEGIERYRISSIEPNLLTDEIIEFVSRSRRFMPHFHIPLQSGCDEVLKLMRRRYDTALFASKVKKIKEVMPDAFIGVDVIVGTRGETEEYFEQAYQFISGLDVTQLHVFSYSERPGTQALKIDYVVSPEEKHQRSQRLLTLSDEKTRAFYTRHIGQTMQVLMEKSKAGTPMHGFTANYIRVEVENDESLDNQMINVRLGEFNEDMTALKGTILMNYEVLEHHHHHH | soluble
MIDVFDGQVTTRIALQLLALLAQRPGELRHAKWSEFDEADKVWAIPAGKMKMRRDHFVPLADQAITLLNELRPLTGESEYLFPSLRSWHRPMSENTMNAALRRMGYSGDEMTAHGFRATFSTLANESGLWNPDAIERALAHEERNELEHHHHHH | not soluble
MIDVMQIQEILPHRYPFLLVDKITELKVKEVVLGYKNISISDHVFMGHFPGHPIYPGVLILEGMAQTGGVLAFESMEDKVDPKSKVVYFTGIDGAKFRNPVRPGDRLDYEMSVVKNRGNMWIFKGQAFVDGNLVAEAELKAMIVDK | soluble
MIEIESLSRKWKNFSLDNLSLKVESGEYFVILGPTGAGKTLFLELIAGFHVPDSGRILLDGKDVTDLSPEKHDIAFVYQNYSLFPHMNVKKNLEFGMRMKKIKDPKRVLDTARDLKIEHLLDRNPLTLSGGEQQRVALARALVTNPKILLLDEPLSALDPRTQENAREMLSVLHKKNKLTVLHITHDQTEARIMADRIAVVMDGKLIQVGKPEEIFEKPVEGRVASFVGFENVLKGRVISAEQGLLRIRVGEVVIDAAGDMEVGDQVYAFLRPENIALSKSSTQSSIRNSLQGRVTEAWVLGALVRVKVDCGVPLNVLITRRSAEEMELSPGVQIYARFKASSVHVLR | soluble
MIELVIVSRLLEYPDAALWQHQQEMFEAIAASKNLPKEDAHALGIFLRDLTTMDPLDAQAQYSELFDRGRATSLLLFEHVHGESRDRGQAMVDLLAQYEQHGLQLNSRELPDHLPLYLEYLAQLPQSEAVEGLKDIAPILALLSARLQQRESRYAVLFDLLLKLANTAIDSDKVAEKIADEARDDTPQALDAVWEEEQVKFFADKGCGDSAITAHQRRFAGAVAPQYLNITTGGQH | not soluble
MIEQIGADSKSAENKQERKLYIETYGCQMNVADSEVVASVMQMDGYNLTDNVDEADTILVNTCSVRDNAEQKVLNRLAYYHSLRKKRRASSRLVIGVLGCMAERVKEELIREHHVDVVAGPDSYLDLPNLVGAAEQGEKAINVELSTQETYKDVMPLKMGGVHINGFVSIMRGCNNFCSYCIVPYTRGRERSREIESILNEVRDLKAKNFREVTLLGQNVNSYRYEQNGRIIRFPDLLAAVAEAVPDMRIRFTSPHPKDMDDEAIAVMARYRNICNHIHLPAQSGSDKMLRVMKRGYTRRWYLDRVAAIRRAIPDCAISSDLFCGFHSETEEDFEATLSLMEEVRYDSAFMFKYSERPGTYAARHLADDVPEEVKLSRLDRMIALQNRLSEESNKRDIGKTFEVLIEGFSKRSREQLFGRTQQNKVVIFDKNGHRVGQYIYVRIKDASSATLFGEVVETPTSELEHHHHHH | soluble
MIERLFRLIKPGTRQQMVCFHHAGGSAEYFLPWKTDLPPDTALYAIQLPGHGGRINESLLHNLHQMADVIAQSYVYLPVRDTFFFGHSMGAALAFEVALRLQKAGRGITTLYVSGRLPPHKNTNTDFYRQSDVSILNKITQLGGSTLDYQQPELKDLLLPIFRADFTAIETYQRQCTELLNCSVMACVGEQDTEVSVRQMSEWCQVTKGAFRLQVFPGGHFYLNHAQKRLLAFINQSVAAQQSSKECKEYHDEI | not soluble
MIETTAALAEACTELAKSEFITIDTEFLRETTFWPELCLVQMASPTLEVLVDPLAKGIDLTPMFELMANPNVVKVFHAARQDIEIIYHLGGLIPHPIFDTQVAAMVCGFGDSISYDQLVQKIKNVQIDKSSRFTDWSRRPLTEKQLDYALADVTHLRDVYLSLKAQLEREGRSLWLTEEMNILESRDTYDMHPDDAWLRLKSRLRKPTELAILKFVAAWREREARSRNVPRSRVLKDDGIFEIAQQQPKDAEALSRLRTIPKGWERSASGTAIIETVNAALALPKEEMPKAPRHSHAPEGSGAAVELLKVLLKLTADKHGVAAKVIANSDDLDKIASEGENATVAALTGWRRELFGDVALKLINGEVALRFAGKKVEAVEVEAAASES | not soluble
MIEVGDLKKGMFIIYDGEIYRVLEASKHFMGRGSGLIRTKLKNVKTGFVREVNFPSGEKVQEAELSFRKAQYLYRDGDHYYFMTLDDYEQYALSEEEIGDAKYYLVENMEVDLVFHEGTPIGIELPTTVELTVVETEPSFKGDTVSGGGKPAVLETGLKITVPYFIEVGDKIKVDTRTGEYVGRA | soluble
MIFEDKFIITTADEIPGLQLYSLGIASTISDNVDEIVENLRKQVKAKGGMGLIAFRITCADGKFLGYGTIVKADEAQFTMA | soluble
MIFRQIHEEGLAQMSYLLGCAATGEALVVDPRRDVDVYLELAQSLGLRITAIAETHIHADYLSGARELARATGATLYLSDEGDENWKYKGLEGFPHVLLKDGDEFKVGNIRVRAVHTPGHTPEHLSFLVADGAVTDEPLLFLTGDFVFVGDVGRPDLLEEAAGIKGTAEPGARRMFRSLKEKFLTLPDHVQVWPGHGAGSACGKALGALPATTVGYERRHAWWAEYLERDDEEGFVKALLQGQPEAPTYFKEMKRLNRDGMAILGGLPHPGRLTPAQFERWLREGAILVDTRDKFAFAGGHIPGSINIPAGKNFSTWAGWLLPYDRPLVLLARPEEVEALTRALVRIGLDEVVGYIPGLEGYAQGELETVPQVTAKEAKELWEKGKAFVLDVRGRDEYLAGHIPGAQNIHAGRVLAHLDRLPKDRPLIVHCVGGDRSSTAISALLAHGFRNALNLTGGIKAWREAGFPVVQGEELVQA | soluble
MIGAVNSVEAVITSIQGLSGSPEDLSALHDLLRGAQDSLRAEPGVNFSTLDQLDASKHSLGYLYFLEVLTCGPVSKEKAAYEIPIIARFINSCDAGQIRLASYKFVSLCKILKDHVIALGDPLRGVGPLLNAVQKLQVSSKRLTALHPDVLQLCLQAKSYKSGFSILSDDIVEIDQPRDFFLYSYYGGMICIGLKRFQKALELLYNVVTAPMHQVNAIALEAYKKYILVSLIHNGQFTNTLPKCASTAAQRSFKNYTGPYIELGNCYNDGKIGELEALVVARNAEFEEDKNLGLVKQAVSSLYKRNILRLTQKYLTLSLQDIANMVQLGNAKEAEMHVLQMIQDGQIHALINQKDGMVRFLEDPEQYKSSEMIEIMDSVIQRTIGLSKNLLAMDESLSCDPLYLGKVGRERQRYDFGDDFDTVPQKFSM | soluble
MIGGLFIYNHKGEVLISRVYRDDIGRNAVDAFRVNVIHARQQVRSPVTNIARTSFFHVKRSNIWLAAVTKQNVNAAMVFEFLYKMCDVMAAYFGKISEENIKNNFVLIYELLDEILDFGYPQNSETGALKTFITQQGIKSQHQTKEEQSQITSQVTGQIGWRREGIKYRRNELFLDVLESVNLLMSPQGQVLSAHVSGRVVMKSYLSGMPECKFGMNDKIVIEKQGKGTADETSKSGKQSIAIDDCTFHQCVRLSKFDSERSISFIPPDGEFELMRYRTTKDIILPFRVIPLVREVGRTKLEVKVVIKSNFKPSLLAQKIEVRIPTPLNTSGVQVICMKGKAKYKASENAIVWKIKRMAGMKESQISAEIELLPTNDKKKWARPPISMNFEVPFAPSGLKVRYLKVFEPKLNYSDHDVIKWVRYIGRSGIYETRC | soluble
MIHLVDYALLKPYLTVDEAVAGARKAEELGVAAYCVNPIYAPVVRPLLRKVKLCVVADFPFGALPTASRIALVSRLAEVADEIDVVAPIGLVKSRRWAEVRRDLISVVGAAGGRVVKVITEEPYLRDEERYTLYDIIAEAGAHFIKSSTGFAEEAYAARQGNPVHSTPERAAAIARYIKEKGYRLGVKMAGGIRTREQAKAIVDAIGWGEDPARVRLGTSTPEALL | soluble
MIIATAGHVDHGKTTLLQAITGVNADRLPEEKKRGMTIDLGYAYWPQPDGRVLGFIDVPGHEKFLSNMLAGVGGIDHALLVVACDDGVMAQTREHLQILQLTGNLQLTVALTKADRVDEARIGEVREEVLAALDNYGFADTVLFVTAANEGRGIAELRAHLQQLPARSHAAQHRFRLAIDRAFTVKGAGLVVTGTALSGEVNVGDTLWLTGVNTPMRVRSLHAQNQPTDHAYAGQRIALNIAGDAEKEQLNRGDWLLSDAPVGEAFSRVIVSLALHAPLSQWQPLHIHHAASHVTGRVSLLEGGLAELIFDTPLWLADNDRLVLRDISARATLAGARVVTLKAPRRGKRKPDYLHWLSTLAAAQDDSAALAIHLERGAVNLPDFGWARQLNPLGMRQLIEQHGFIQAGDNLLSAPVAARWQRKILDTLATYHEQHRDEPGPGRERLRRMALPMEDEALVLMLIERMRDDGLIHSHHGWLHLPDHKAGFSDEQQAVWQKVEPLFGDEPWWVRDLAKETGTEEQLMRLVLRQAAQQGIITAIVKDRYYRNDRIVAFANMIRELDQERGSTCAADFRDRLNVGRKLAIQILEYFDRIGFTRRRGNDHLLRDALLFPQKE | not soluble
